{"source": "patent US20120077751", "key": {"[1]": {"test_system": "GST back bone (GST) [GST: P08515]"}, "[2]": {"target": "GST fusion protein of the GluR1 carboxyl tail (GST-GluR1CT) (UniProt P19490)", "sequence (P19490 827-907)": "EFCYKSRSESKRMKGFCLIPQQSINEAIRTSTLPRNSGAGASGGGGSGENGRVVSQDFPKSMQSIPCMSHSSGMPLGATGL"}, "[3]": {"target": "GST fusion protein of the GluR2 carboxyl tail (GST-GluR2CT) (UniProt P19491)", "sequence (P19491 834-883)": "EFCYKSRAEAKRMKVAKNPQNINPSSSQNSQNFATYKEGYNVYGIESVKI"}, "[4]": {"test_system": "T1, GST-GluR23A (GST-AKEGANVAG)", "T1 sequence": "AKEGANVAG"}, "[5]": {"test_system": "GST-GluR23Y (GST-YKEGYNVYG) [GST: P08515]"}}}
{"substance": "active recombinant pp60 c-Src", "values": [{"measurement": "in vitro kinase assay, anti-phosphotyrosine immunoblot", "setting": "[1]", "result": "GST-GluR2CT, but not GST-GluR1CT or GST alone, is specifically phosphorylated by Src kinase"}, {"measurement": "in vitro kinase assay, anti-phosphotyrosine immunoblot", "setting": "[2]", "result": "GST-GluR2CT, but not GST-GluR1CT or GST alone, is specifically phosphorylated by Src kinase"}, {"measurement": "in vitro kinase assay, anti-phosphotyrosine immunoblot", "setting": "[3]", "result": "GST-GluR2CT, but not GST-GluR1CT or GST alone, is specifically phosphorylated by Src kinase"}, {"measurement": "in vitro kinase assay, anti-phosphotyrosine immunoblot", "setting": "[4]", "result": "Src-mediated phosphorylation was abolished when these tyrosine residues were mutated into alanines"}, {"measurement": "in vitro kinase assay, anti-phosphotyrosine immunoblot", "setting": "[5]", "result": "the recombinant Src kinase phosphorylated a GST fusion protein containing the nine amino-acid stretch including all three GluR2-unique tyrosine residues"}]}
